The values that follow come from US20260242735A1.

The target in the experiment is human CD33 R291A (human) (UniProt P20138). Briefly: flow cytometry, HEK293-T, alanine scan. A general note: A flow cytometer gives signals particle by particle.
Chain of human CD33 R291A (human) (P20138 18-364 R291A limits assumed): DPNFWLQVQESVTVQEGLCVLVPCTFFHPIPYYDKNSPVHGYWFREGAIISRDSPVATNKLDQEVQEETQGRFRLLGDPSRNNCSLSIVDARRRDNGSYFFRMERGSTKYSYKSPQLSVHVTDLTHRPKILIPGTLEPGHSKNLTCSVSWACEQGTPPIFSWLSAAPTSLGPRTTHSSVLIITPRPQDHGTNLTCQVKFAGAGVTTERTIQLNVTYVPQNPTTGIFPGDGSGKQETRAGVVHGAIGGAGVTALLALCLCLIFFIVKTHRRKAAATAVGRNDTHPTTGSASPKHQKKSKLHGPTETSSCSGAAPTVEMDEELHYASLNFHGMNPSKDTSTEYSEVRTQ

Turning to Refmab #7 (WM53) (antibody), the Mean % WT Binding was determined as 120 % WT binding.
